{
  "source": "patent US20050050591A1",
  "about": "(published 2005)",
  "target": "Cdc2MsB, A-type cyclin-dependent kinase of Medicago sativa (two-hybrid bait, GAL4 DNA binding domain fusion) (Medicago sativa, UniProt P04386 1-147; Q05006 1-294)",
  "experiment": "yeast two-hybrid (growth on selective medium, beta-galactosidase)",
  "text": "FIG. 5. Interaction in a yeast two-hybrid assay of alfalfa Cdc2-type or Cdc2-related kinases and different D-type cyclins and myosin. The different Cdc2Ms kinase cDNAs are cloned in the pGBT9 bait vector and the cDNAs of the interacting partners in the pGAD424 activation domain vector. (A) Growth of PJ69-4a yeast cells transformed with expression vectors comprising the indicated protein coding sequences on the agar surface of a selective medium lacking tryptophan, leucine, adenine and histidine. The relative growth values were also determined in liquid cultures and are numerically indicated. (B) Quantification of β-galactosidase enzyme acitivity of yeast strains described in (A).\nThe yeast strain PJ69-4A [MATa trp1-901, leu2-3,112 ura3-52, his3-200 gal4delta, gal80delta GAL2-ADE2, LYS2:: GAL1-HIS3, met2::GAL7-lacZ] (James et al. 1996), which contains three reporter genes (HIS3, ADE2 and lacZ), was used in library screening, growth tests and β-galactosidase assays. Transformation of yeast with pGBT9, pGAD424, pBD-GAL4 and pAD-GAL4 constructs was performed as described by Schiesti and Gietz (1989). The transformation mixture was plated on yeast dropout selection media either lacking leucine and tryptophan (SD-Trp-Leu) for testing the transformation efficiency or on media lacking leucine, tryptophan and histidine, for testing protein-protein interactions. […]",
  "data": [
    {"binder": "MtCycDm, novel D-type cyclin of Medicago truncatula (two-hybrid prey, GAL4 activation domain fusion) (other, not shown: large carriers, Tested only as a yeast two-hybrid fusion; The order GAL4 domain then insert follows the vector design; also called cyclin D of the invention; MTCYCDM gene product) MIEEEQLPAILMPSDCELLCGEDSSEVLTGDLPECSSDLDSSSSSQLPSSSLFAEEEEDSIAVFIEHEFKFVPGFDYVSRFQSRSLESSTREEAIAWILKVHEYYGFQPLTAYLSVNYMDRFLDSRPLPGIKWMATATFICCMFVFSSKDGGPLVPSLLDFQIEGAKYIFQPRTMLIMELLVLTILDWRLRSITHLVSSVSLRATRFTGTFNHFIISRATEIILSNIRDASFLTYRPSCIAAAAILSAANEIPNWSFVNPEHAESWCEGLSKEKIIGCYELIQEIVSSNNRRNAPKVLPQLRVTARTTRWSTVSSLSSSPSSSSSPSYSLSYKKRKLNSCFWVDVDKGNSEGREKKQTR", "values": [
      {"measurement": "binding result", "value": "no binding"}
    ]}
  ]
}
